{"source": "paper PMC3623829", "key": {"[1]": {"molecular_target": "HIV-1 CA (capsid protein) Q63C/Y169C (HIV-1)", "test": "cross-linking; spontaneous disulfide crosslinking of engineered cysteines in virions; viruses pelleted through 20% sucrose (100,000 x g, 30 min), dissolved in SDS sample buffer without beta-mercaptoethanol, 95°C 5 min, SDS-PAGE, immunoblot with rabbit polyclonal anti-CA antibody"}, "[2]": {"molecular_target": "HIV-1 CA (capsid protein) M68C/E212C (HIV-1)", "test": "cross-linking; spontaneous disulfide crosslinking of engineered cysteines in virions; viruses pelleted through 20% sucrose (100,000 x g, 30 min), dissolved in SDS sample buffer without beta-mercaptoethanol, 95°C 5 min, SDS-PAGE, immunoblot with rabbit polyclonal anti-CA antibody"}}, "data": [{"substance": "HIV-1 CA (capsid protein) Q63C/Y169C (natural protein)", "values": [{"measurement": "stoichiometry N", "setting": "[1]", "value": 6}]}, {"substance": "HIV-1 CA (capsid protein) M68C/E212C (natural protein)", "values": [{"measurement": "stoichiometry N", "setting": "[2]", "value": 6}]}]}
